Positions of bridges follow the written chain, without caps; N, C: chain ends. Non-standard residues stand in square brackets, D forms with d. Trp(1-Me) = Cn1cc(C[C@H](N)C(=O)O)c2ccccc21; 1Nal = N[C@@H](Cc1cccc2ccccc12)C(=O)O; 2Nal = N[C@@H](Cc1ccc2ccccc2c1)C(=O)O; Sar = CNCC(=O)O
Biological target: Human C3 (human, UniProt P01024 23-1663)
Experiment: cell-based or functional assay

Chain of Human C3 (P01024 23-1663 limits assumed): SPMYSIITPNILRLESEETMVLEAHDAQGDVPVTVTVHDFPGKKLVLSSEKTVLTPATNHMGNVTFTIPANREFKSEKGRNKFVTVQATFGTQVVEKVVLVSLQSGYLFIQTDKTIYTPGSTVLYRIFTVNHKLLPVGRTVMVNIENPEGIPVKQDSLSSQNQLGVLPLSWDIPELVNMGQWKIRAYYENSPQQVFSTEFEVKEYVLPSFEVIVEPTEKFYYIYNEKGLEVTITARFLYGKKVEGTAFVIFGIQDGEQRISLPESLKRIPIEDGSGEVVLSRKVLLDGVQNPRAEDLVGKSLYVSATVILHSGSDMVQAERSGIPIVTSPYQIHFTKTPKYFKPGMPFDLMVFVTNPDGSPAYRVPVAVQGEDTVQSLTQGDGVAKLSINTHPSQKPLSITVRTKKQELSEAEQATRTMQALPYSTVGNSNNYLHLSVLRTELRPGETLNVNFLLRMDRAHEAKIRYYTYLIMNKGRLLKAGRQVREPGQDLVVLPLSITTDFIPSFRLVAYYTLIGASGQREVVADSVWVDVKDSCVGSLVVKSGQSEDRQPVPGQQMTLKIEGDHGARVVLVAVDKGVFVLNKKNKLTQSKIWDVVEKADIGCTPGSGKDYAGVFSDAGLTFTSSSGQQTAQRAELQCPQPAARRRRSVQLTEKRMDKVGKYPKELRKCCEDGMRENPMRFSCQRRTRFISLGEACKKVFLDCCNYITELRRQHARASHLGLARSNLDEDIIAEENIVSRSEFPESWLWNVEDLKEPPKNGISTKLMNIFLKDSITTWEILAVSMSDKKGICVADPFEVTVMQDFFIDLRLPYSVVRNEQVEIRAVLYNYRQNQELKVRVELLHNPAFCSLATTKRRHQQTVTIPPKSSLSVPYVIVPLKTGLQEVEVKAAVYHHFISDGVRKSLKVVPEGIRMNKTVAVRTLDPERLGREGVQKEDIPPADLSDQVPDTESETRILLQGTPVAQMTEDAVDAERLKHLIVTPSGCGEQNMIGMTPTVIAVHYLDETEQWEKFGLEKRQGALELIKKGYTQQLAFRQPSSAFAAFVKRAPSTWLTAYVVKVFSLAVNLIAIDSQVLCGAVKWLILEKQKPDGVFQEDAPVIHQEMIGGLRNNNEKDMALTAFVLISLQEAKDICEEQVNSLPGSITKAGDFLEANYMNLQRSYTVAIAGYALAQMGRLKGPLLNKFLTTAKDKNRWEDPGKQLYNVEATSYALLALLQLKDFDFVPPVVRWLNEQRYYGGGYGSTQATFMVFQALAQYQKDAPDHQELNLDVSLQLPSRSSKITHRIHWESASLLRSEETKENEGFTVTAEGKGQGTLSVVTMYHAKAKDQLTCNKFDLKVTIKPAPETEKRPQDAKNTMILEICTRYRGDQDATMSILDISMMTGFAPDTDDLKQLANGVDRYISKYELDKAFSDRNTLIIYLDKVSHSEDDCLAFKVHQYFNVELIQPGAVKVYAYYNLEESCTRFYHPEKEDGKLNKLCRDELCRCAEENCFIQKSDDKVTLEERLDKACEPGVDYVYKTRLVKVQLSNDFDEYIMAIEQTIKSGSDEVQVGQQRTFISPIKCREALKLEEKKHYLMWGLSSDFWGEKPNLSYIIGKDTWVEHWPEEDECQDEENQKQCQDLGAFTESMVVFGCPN

B1: Compound 41 (peptide)
peptide: Ac-SAICIWQDWGEHRC[Sar]E-NH2
modifications: disulfide 4-14
SMILES: CC[C@H](C)[C@H](NC(=O)[C@H](C)NC(=O)[C@H](CO)NC(C)=O)C(=O)N[C@H]1CSSC[C@@H](C(=O)N(C)CC(=O)N[C@@H](CCC(=O)O)C(N)=O)NC(=O)[C@H](CCCNC(=N)N)NC(=O)[C@H](Cc2c[nH]cn2)NC(=O)[C@H](CCC(=O)O)NC(=O)CNC(=O)[C@H](Cc2c[nH]c3ccccc23)NC(=O)[C@H](CC(=O)O)NC(=O)[C@H](CCC(N)=O)NC(=O)[C@H](Cc2c[nH]c3ccccc23)NC(=O)[C@H]([C@@H](C)CC)NC1=O
In the case of B1, the IC50[nM], inhibition of hemolysis is reported as < 250 nM.

B2: Compound 52 (peptide)
peptide: Ac-ICI[2Nal]QDWGEHRCTGAES-NH2
modifications: disulfide 2-12
SMILES: CC[C@H](C)[C@H](NC(C)=O)C(=O)N[C@H]1CSSC[C@@H](C(=O)N[C@H](C(=O)NCC(=O)N[C@@H](C)C(=O)N[C@@H](CCC(=O)O)C(=O)N[C@@H](CO)C(N)=O)[C@@H](C)O)NC(=O)[C@H](CCCNC(=N)N)NC(=O)[C@H](Cc2c[nH]cn2)NC(=O)[C@H](CCC(=O)O)NC(=O)CNC(=O)[C@H](Cc2c[nH]c3ccccc23)NC(=O)[C@H](CC(=O)O)NC(=O)[C@H](CCC(N)=O)NC(=O)[C@H](Cc2ccc3ccccc3c2)NC(=O)[C@H]([C@@H](C)CC)NC1=O
B2 was tested, and the IC50[nM], inhibition of hemolysis was < 100 nM.

B3: Compound 57 (peptide)
peptide: Ac-EGSAFCI[Trp(1-Me)]QDWGEHRCTE-NH2
modifications: disulfide 6-16
SMILES: CC[C@H](C)[C@@H]1NC(=O)[C@@H](NC(=O)[C@H](Cc2ccccc2)NC(=O)[C@H](C)NC(=O)[C@H](CO)NC(=O)CNC(=O)[C@H](CCC(=O)O)NC(C)=O)CSSC[C@@H](C(=O)N[C@H](C(=O)N[C@@H](CCC(=O)O)C(N)=O)[C@@H](C)O)NC(=O)[C@H](CCCNC(=N)N)NC(=O)[C@H](Cc2c[nH]cn2)NC(=O)[C@H](CCC(=O)O)NC(=O)CNC(=O)[C@H](Cc2c[nH]c3ccccc23)NC(=O)[C@H](CC(=O)O)NC(=O)[C@H](CCC(N)=O)NC(=O)[C@H](Cc2cn(C)c3ccccc23)NC1=O
With B3 the IC50[nM], inhibition of hemolysis was < 100 nM.

B4: Compound 45 (peptide)
peptide: Ac-EGSAFCIWQDWGEHRC[Sar]E-NH2
modifications: disulfide 6-16
SMILES: CC[C@H](C)[C@@H]1NC(=O)[C@@H](NC(=O)[C@H](Cc2ccccc2)NC(=O)[C@H](C)NC(=O)[C@H](CO)NC(=O)CNC(=O)[C@H](CCC(=O)O)NC(C)=O)CSSC[C@@H](C(=O)N(C)CC(=O)N[C@@H](CCC(=O)O)C(N)=O)NC(=O)[C@H](CCCNC(=N)N)NC(=O)[C@H](Cc2c[nH]cn2)NC(=O)[C@H](CCC(=O)O)NC(=O)CNC(=O)[C@H](Cc2c[nH]c3ccccc23)NC(=O)[C@H](CC(=O)O)NC(=O)[C@H](CCC(N)=O)NC(=O)[C@H](Cc2c[nH]c3ccccc23)NC1=O
With B4 the IC50[nM], inhibition of hemolysis was < 100 nM.

B5: Ac-IC(1)X…(1)T-NH2 with Phenylalanine at position 3 (peptide)
peptide: Ac-ICFWQDWGEHRCT-NH2
modifications: disulfide 2-12
SMILES: CC[C@H](C)[C@H](NC(C)=O)C(=O)N[C@H]1CSSC[C@@H](C(=O)N[C@H](C(N)=O)[C@@H](C)O)NC(=O)[C@H](CCCNC(=N)N)NC(=O)[C@H](Cc2c[nH]cn2)NC(=O)[C@H](CCC(=O)O)NC(=O)CNC(=O)[C@H](Cc2c[nH]c3ccccc23)NC(=O)[C@H](CC(=O)O)NC(=O)[C@H](CCC(N)=O)NC(=O)[C@H](Cc2c[nH]c3ccccc23)NC(=O)[C@H](Cc2ccccc2)NC1=O
For B5, the IC50, CP hemolysis was > 10000 nM.

B6: Compound 58 (peptide)
peptide: Ac-EGSAFCI[Trp(1-Me)]QDWGEHRCEGE-NH2
modifications: disulfide 6-16
SMILES: CC[C@H](C)[C@@H]1NC(=O)[C@@H](NC(=O)[C@H](Cc2ccccc2)NC(=O)[C@H](C)NC(=O)[C@H](CO)NC(=O)CNC(=O)[C@H](CCC(=O)O)NC(C)=O)CSSC[C@@H](C(=O)N[C@@H](CCC(=O)O)C(=O)NCC(=O)N[C@@H](CCC(=O)O)C(N)=O)NC(=O)[C@H](CCCNC(=N)N)NC(=O)[C@H](Cc2c[nH]cn2)NC(=O)[C@H](CCC(=O)O)NC(=O)CNC(=O)[C@H](Cc2c[nH]c3ccccc23)NC(=O)[C@H](CC(=O)O)NC(=O)[C@H](CCC(N)=O)NC(=O)[C@H](Cc2cn(C)c3ccccc23)NC1=O
With B6 the IC50[nM], inhibition of hemolysis was < 100 nM.

B7: Compound 68 (peptide)
peptide: Ac-YCI[Trp(1-Me)]QDWGEHRCTEAGS-NH2
modifications: disulfide 2-12
SMILES: CC[C@H](C)[C@@H]1NC(=O)[C@@H](NC(=O)[C@H](Cc2ccc(O)cc2)NC(C)=O)CSSC[C@@H](C(=O)N[C@H](C(=O)N[C@@H](CCC(=O)O)C(=O)N[C@@H](C)C(=O)NCC(=O)N[C@@H](CO)C(N)=O)[C@@H](C)O)NC(=O)[C@H](CCCNC(=N)N)NC(=O)[C@H](Cc2c[nH]cn2)NC(=O)[C@H](CCC(=O)O)NC(=O)CNC(=O)[C@H](Cc2c[nH]c3ccccc23)NC(=O)[C@H](CC(=O)O)NC(=O)[C@H](CCC(N)=O)NC(=O)[C@H](Cc2cn(C)c3ccccc23)NC1=O
With B7 the IC50[nM], inhibition of hemolysis was < 100 nM.

B8: Compound 56 (peptide)
peptide: Ac-EGSAFCI[1Nal]QDWGEHRCTE-NH2
modifications: disulfide 6-16
SMILES: CC[C@H](C)[C@@H]1NC(=O)[C@@H](NC(=O)[C@H](Cc2ccccc2)NC(=O)[C@H](C)NC(=O)[C@H](CO)NC(=O)CNC(=O)[C@H](CCC(=O)O)NC(C)=O)CSSC[C@@H](C(=O)N[C@H](C(=O)N[C@@H](CCC(=O)O)C(N)=O)[C@@H](C)O)NC(=O)[C@H](CCCNC(=N)N)NC(=O)[C@H](Cc2c[nH]cn2)NC(=O)[C@H](CCC(=O)O)NC(=O)CNC(=O)[C@H](Cc2c[nH]c3ccccc23)NC(=O)[C@H](CC(=O)O)NC(=O)[C@H](CCC(N)=O)NC(=O)[C@H](Cc2cccc3ccccc23)NC1=O
B8 was tested, and the IC50[nM], inhibition of hemolysis was < 100 nM.

B9: Compound 40 (peptide)
peptide: Ac-GSAICIWQDWGEHRC[Sar]E-NH2
modifications: disulfide 5-15
SMILES: CC[C@H](C)[C@H](NC(=O)[C@H](C)NC(=O)[C@H](CO)NC(=O)CNC(C)=O)C(=O)N[C@H]1CSSC[C@@H](C(=O)N(C)CC(=O)N[C@@H](CCC(=O)O)C(N)=O)NC(=O)[C@H](CCCNC(=N)N)NC(=O)[C@H](Cc2c[nH]cn2)NC(=O)[C@H](CCC(=O)O)NC(=O)CNC(=O)[C@H](Cc2c[nH]c3ccccc23)NC(=O)[C@H](CC(=O)O)NC(=O)[C@H](CCC(N)=O)NC(=O)[C@H](Cc2c[nH]c3ccccc23)NC(=O)[C@H]([C@@H](C)CC)NC1=O
In the case of B9, the IC50[nM], inhibition of hemolysis is reported as < 250 nM.

B10: Compound 65 (peptide)
peptide: Ac-YCI[2Nal]QDWGEHRCTGAES-NH2
modifications: disulfide 2-12
SMILES: CC[C@H](C)[C@@H]1NC(=O)[C@@H](NC(=O)[C@H](Cc2ccc(O)cc2)NC(C)=O)CSSC[C@@H](C(=O)N[C@H](C(=O)NCC(=O)N[C@@H](C)C(=O)N[C@@H](CCC(=O)O)C(=O)N[C@@H](CO)C(N)=O)[C@@H](C)O)NC(=O)[C@H](CCCNC(=N)N)NC(=O)[C@H](Cc2c[nH]cn2)NC(=O)[C@H](CCC(=O)O)NC(=O)CNC(=O)[C@H](Cc2c[nH]c3ccccc23)NC(=O)[C@H](CC(=O)O)NC(=O)[C@H](CCC(N)=O)NC(=O)[C@H](Cc2ccc3ccccc3c2)NC1=O
B10 was tested, and the IC50[nM], inhibition of hemolysis was < 100 nM.

B11: Compound 59 (peptide)
peptide: Ac-EGSAYCI[Trp(1-Me)]QDWGEHRCTE-NH2
modifications: disulfide 6-16
SMILES: CC[C@H](C)[C@@H]1NC(=O)[C@@H](NC(=O)[C@H](Cc2ccc(O)cc2)NC(=O)[C@H](C)NC(=O)[C@H](CO)NC(=O)CNC(=O)[C@H](CCC(=O)O)NC(C)=O)CSSC[C@@H](C(=O)N[C@H](C(=O)N[C@@H](CCC(=O)O)C(N)=O)[C@@H](C)O)NC(=O)[C@H](CCCNC(=N)N)NC(=O)[C@H](Cc2c[nH]cn2)NC(=O)[C@H](CCC(=O)O)NC(=O)CNC(=O)[C@H](Cc2c[nH]c3ccccc23)NC(=O)[C@H](CC(=O)O)NC(=O)[C@H](CCC(N)=O)NC(=O)[C@H](Cc2cn(C)c3ccccc23)NC1=O
With B11 the IC50[nM], inhibition of hemolysis was < 100 nM.

B12: Compound 64 (peptide)
peptide: Ac-FCI[2Nal]QDWGEHRCTGAES-NH2
modifications: disulfide 2-12
SMILES: CC[C@H](C)[C@@H]1NC(=O)[C@@H](NC(=O)[C@H](Cc2ccccc2)NC(C)=O)CSSC[C@@H](C(=O)N[C@H](C(=O)NCC(=O)N[C@@H](C)C(=O)N[C@@H](CCC(=O)O)C(=O)N[C@@H](CO)C(N)=O)[C@@H](C)O)NC(=O)[C@H](CCCNC(=N)N)NC(=O)[C@H](Cc2c[nH]cn2)NC(=O)[C@H](CCC(=O)O)NC(=O)CNC(=O)[C@H](Cc2c[nH]c3ccccc23)NC(=O)[C@H](CC(=O)O)NC(=O)[C@H](CCC(N)=O)NC(=O)[C@H](Cc2ccc3ccccc3c2)NC1=O
For B12, the IC50[nM], inhibition of hemolysis was < 100 nM.

B13: Compound 44 (peptide)
peptide: Ac-EGSAICIWQDWGEHRC[Sar]EGE-NH2
modifications: disulfide 6-16
SMILES: CC[C@H](C)[C@H](NC(=O)[C@H](C)NC(=O)[C@H](CO)NC(=O)CNC(=O)[C@H](CCC(=O)O)NC(C)=O)C(=O)N[C@H]1CSSC[C@@H](C(=O)N(C)CC(=O)N[C@@H](CCC(=O)O)C(=O)NCC(=O)N[C@@H](CCC(=O)O)C(N)=O)NC(=O)[C@H](CCCNC(=N)N)NC(=O)[C@H](Cc2c[nH]cn2)NC(=O)[C@H](CCC(=O)O)NC(=O)CNC(=O)[C@H](Cc2c[nH]c3ccccc23)NC(=O)[C@H](CC(=O)O)NC(=O)[C@H](CCC(N)=O)NC(=O)[C@H](Cc2c[nH]c3ccccc23)NC(=O)[C@H]([C@@H](C)CC)NC1=O
In the case of B13, the IC50[nM], inhibition of hemolysis is reported as < 250 nM.

B14: Compound 60 (peptide)
peptide: Ac-EGSAFCI[2Nal]QDWGEHRCTE-NH2
modifications: disulfide 6-16
SMILES: CC[C@H](C)[C@@H]1NC(=O)[C@@H](NC(=O)[C@H](Cc2ccccc2)NC(=O)[C@H](C)NC(=O)[C@H](CO)NC(=O)CNC(=O)[C@H](CCC(=O)O)NC(C)=O)CSSC[C@@H](C(=O)N[C@H](C(=O)N[C@@H](CCC(=O)O)C(N)=O)[C@@H](C)O)NC(=O)[C@H](CCCNC(=N)N)NC(=O)[C@H](Cc2c[nH]cn2)NC(=O)[C@H](CCC(=O)O)NC(=O)CNC(=O)[C@H](Cc2c[nH]c3ccccc23)NC(=O)[C@H](CC(=O)O)NC(=O)[C@H](CCC(N)=O)NC(=O)[C@H](Cc2ccc3ccccc3c2)NC1=O
In the case of B14, the IC50[nM], inhibition of hemolysis is reported as < 100 nM.
